The values that follow are results of earlier work, collected in publication PMC2751630.

pKd: −log10 of the molar value. Bounds are passed on as bounds.

The target in data set [1] is PKA RI (Homo sapiens) (UniProt P10644).
Data set [2] concerns the target PKA RIIβ (Homo sapiens) (UniProt P31323).
Data set [3] addresses PKA RIIα (Homo sapiens) (UniProt P13861).

Chain of AKAP79 (P24588 whole entry): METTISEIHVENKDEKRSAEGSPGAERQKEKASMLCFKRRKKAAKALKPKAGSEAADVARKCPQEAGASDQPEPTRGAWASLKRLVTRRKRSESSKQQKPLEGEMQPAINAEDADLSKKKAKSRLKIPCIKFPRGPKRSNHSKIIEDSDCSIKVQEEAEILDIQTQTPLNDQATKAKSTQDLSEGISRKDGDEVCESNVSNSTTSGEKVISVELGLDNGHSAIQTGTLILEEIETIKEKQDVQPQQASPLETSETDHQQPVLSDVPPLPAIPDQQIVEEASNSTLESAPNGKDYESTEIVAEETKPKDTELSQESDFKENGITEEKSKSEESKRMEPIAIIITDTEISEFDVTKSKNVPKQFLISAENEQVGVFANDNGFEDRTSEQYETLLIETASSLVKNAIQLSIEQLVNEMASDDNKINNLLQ
Chain of PKA RI (Homo sapiens) (P10644 whole entry): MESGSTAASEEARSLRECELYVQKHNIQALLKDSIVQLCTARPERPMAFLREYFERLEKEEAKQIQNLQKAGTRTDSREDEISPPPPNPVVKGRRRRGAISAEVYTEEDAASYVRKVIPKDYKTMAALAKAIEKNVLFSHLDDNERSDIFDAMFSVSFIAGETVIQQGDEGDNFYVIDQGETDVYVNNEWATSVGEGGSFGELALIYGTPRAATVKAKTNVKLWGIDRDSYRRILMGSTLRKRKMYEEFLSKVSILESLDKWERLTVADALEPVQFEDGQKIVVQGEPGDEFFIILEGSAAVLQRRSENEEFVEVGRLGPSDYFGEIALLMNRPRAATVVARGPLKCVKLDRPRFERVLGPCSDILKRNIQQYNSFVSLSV
Chain of PKA RIIβ (Homo sapiens) (P31323 whole entry): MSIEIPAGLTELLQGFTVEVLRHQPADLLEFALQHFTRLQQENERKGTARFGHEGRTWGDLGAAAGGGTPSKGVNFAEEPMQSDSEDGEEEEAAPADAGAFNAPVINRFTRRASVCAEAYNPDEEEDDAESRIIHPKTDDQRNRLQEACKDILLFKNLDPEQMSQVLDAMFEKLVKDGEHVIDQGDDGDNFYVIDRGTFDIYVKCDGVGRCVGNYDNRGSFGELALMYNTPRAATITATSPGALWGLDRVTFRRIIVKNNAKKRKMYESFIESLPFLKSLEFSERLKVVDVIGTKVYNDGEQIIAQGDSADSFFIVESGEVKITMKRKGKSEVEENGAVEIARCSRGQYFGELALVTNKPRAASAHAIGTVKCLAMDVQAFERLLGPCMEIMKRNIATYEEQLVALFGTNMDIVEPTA
Chain of PKA RIIα (Homo sapiens) (P13861 2-404): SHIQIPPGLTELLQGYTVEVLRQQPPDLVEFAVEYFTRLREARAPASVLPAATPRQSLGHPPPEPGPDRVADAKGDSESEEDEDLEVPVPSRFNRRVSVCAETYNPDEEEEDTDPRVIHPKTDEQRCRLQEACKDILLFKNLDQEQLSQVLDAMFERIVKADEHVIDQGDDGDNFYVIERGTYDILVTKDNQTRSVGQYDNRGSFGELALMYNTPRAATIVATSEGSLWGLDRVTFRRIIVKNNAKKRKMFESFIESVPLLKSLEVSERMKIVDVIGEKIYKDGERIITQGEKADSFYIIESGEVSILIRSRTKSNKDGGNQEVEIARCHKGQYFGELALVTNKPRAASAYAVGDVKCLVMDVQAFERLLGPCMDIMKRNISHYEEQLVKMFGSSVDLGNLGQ

Turning to AKAP79 (from UniProt P24588), the pKd (usually the negative decadic logarithm of the Kd, by convention in mol/L) is under 6.00 in data set [1], 8.35 in data set [2] and 8.82 in data set [3].
